Measured values reported in US20260216242A1 (ALMAC DISCOVERY, published 2026).

T1: human ALPI on CHO cells (human, UniProt P09923 20-503)
T1 construct: whole, on cells; also called CHO-ALPI
T1 sequence (looked up): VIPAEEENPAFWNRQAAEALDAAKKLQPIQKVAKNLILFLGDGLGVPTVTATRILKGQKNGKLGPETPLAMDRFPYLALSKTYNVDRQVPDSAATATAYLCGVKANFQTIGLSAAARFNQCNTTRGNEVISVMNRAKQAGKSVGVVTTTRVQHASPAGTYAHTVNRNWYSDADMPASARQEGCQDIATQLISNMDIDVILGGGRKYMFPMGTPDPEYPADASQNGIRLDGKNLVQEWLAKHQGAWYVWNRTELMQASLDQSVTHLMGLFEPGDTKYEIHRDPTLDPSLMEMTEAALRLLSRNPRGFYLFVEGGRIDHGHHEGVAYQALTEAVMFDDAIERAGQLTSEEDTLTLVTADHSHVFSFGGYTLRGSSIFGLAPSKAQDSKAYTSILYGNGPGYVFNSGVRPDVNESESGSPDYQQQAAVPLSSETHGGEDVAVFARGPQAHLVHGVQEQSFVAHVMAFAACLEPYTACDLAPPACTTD


How the values were obtained:
human ALPI on CHO cells = biological target: T1, human ALPI on CHO cells; test: flow cytometry, CHO cells, 350 nM
Procedure: (§1) Cell surface binding of test agents to hALPP isoforms was characterized in four CHO-ALPP isoform stably transfected cell lines (CHO-ALPP, CHO-ALPPL2, CHO-ALPI and CHO-ALPL) and the resulting KDapp values determined. Adherent cells were detached from tissue culture flasks by incubating with 0.1% EDTA/PBS solution at 37° C. for ~10 minutes or until cells detached easily. Cells were re-suspended in ice-cold PBS/2% FCS in 15 ml tubes and centrifuged at 1700 rpm for 5 mins at 4° C. Supernatant was removed and the cell pellet re-suspended in PBS/2% FCS. […] Cells were incubated with 100 μl of test agents at a range of concentrations, plus controls for 1 hr on ice. The sample plate was centrifuged at 1700 rpm for 5 mins at 4° C. The supernatant was removed, and a wash performed by re-suspending the cell pellets in 0.25 mL of ice-cold PBS/2% FCS using a multichannel pipette. Samples were again centrifuged at 1700 rpm for 5 min at 4° C. Supernatant was removed and two further washes performed as described. After the final wash and centrifugation step, excess liquid was removed by blotting the plate on tissue paper. Binding of VHH (His6 tagged) agents was determined by adding 100 μl of anti-x6His tag Ab (Abcam) per cell pellet sample as appropriate and incubating on ice for 30 mins. Wash steps were performed as described previously. Fitc-anti-mouse antibody (ThermoFisher) was used to detect binding of the VHH (His6 tagged) agents by incubating with the appropriate samples for 30 min on ice in the dark. Wash steps were performed as described previously. All cell pellets were finally re-suspended in […] of ice-cold PBS/2% FCS and left on ice in the dark prior to analysis on a Merck-Millipore Guava EasyCyte HT or Thermo Fisher Attune N×T flow cytometer.

human ALPP on CHO cells = biological target: T2, human ALPP on CHO cells (human, UniProt P05187 23-506); test: flow cytometry, CHO cells, 350 nM
T2 construct: whole, on cells; also called CHO-ALPP
Procedure: as §1

T2 sequence (P05187 23-506): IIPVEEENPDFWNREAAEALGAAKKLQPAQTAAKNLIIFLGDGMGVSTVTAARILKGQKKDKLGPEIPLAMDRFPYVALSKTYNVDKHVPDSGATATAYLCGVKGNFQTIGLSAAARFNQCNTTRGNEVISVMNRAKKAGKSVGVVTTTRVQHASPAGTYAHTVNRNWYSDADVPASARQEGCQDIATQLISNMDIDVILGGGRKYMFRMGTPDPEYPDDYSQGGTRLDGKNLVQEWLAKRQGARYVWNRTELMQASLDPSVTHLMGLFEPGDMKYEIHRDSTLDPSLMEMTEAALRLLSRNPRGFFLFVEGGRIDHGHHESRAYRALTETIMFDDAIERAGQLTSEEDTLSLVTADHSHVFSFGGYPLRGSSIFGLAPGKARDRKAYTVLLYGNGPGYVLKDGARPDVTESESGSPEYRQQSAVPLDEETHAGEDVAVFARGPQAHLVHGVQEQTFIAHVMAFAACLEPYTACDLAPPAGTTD

Row | MFI (human ALPI on CHO cells) [MFI] | MFI (human ALPP on CHO cells) [MFI] | fold lower MFI for ALPI binding versus ALPP (human ALPI on CHO cells) [fold] | Binder
1 | 629 | 6650 |  | D04 His (VHH, not shown: small tags and cut ends) VHH: QVQLVESGGGLVQPGGSLRLSCAASESTFSINVMGWYRQAPGKQRELVATITSGDITNYADSVKGRFTISRDNAENTVYLRTNSLKPEDTAVYYCNARGEYHSGNEYDYWGQGTQVTVSS
2 | 99 | 7370 | 75 | F08 His (VHH, not shown: small tags and cut ends, also called #269) VHH: QVQLVESGGGSVQAGGSLRLSCAASGPSLSNYAMGWFRQAPGKEREFVAGISWGGGRTSYTDSVKGRFTISRDNAKNTVYLQMNNLKPEDTGVYYCAGRYGRGRNVEYEYDYWGQGTQVTVSS
